Values of other authors as cited in publication PMC8131754.

Target: SRC-2 coactivator peptide (Homo sapiens) (UniProt Q15596)
Sequence of UniProt Q15596 (Q15596 2-1464): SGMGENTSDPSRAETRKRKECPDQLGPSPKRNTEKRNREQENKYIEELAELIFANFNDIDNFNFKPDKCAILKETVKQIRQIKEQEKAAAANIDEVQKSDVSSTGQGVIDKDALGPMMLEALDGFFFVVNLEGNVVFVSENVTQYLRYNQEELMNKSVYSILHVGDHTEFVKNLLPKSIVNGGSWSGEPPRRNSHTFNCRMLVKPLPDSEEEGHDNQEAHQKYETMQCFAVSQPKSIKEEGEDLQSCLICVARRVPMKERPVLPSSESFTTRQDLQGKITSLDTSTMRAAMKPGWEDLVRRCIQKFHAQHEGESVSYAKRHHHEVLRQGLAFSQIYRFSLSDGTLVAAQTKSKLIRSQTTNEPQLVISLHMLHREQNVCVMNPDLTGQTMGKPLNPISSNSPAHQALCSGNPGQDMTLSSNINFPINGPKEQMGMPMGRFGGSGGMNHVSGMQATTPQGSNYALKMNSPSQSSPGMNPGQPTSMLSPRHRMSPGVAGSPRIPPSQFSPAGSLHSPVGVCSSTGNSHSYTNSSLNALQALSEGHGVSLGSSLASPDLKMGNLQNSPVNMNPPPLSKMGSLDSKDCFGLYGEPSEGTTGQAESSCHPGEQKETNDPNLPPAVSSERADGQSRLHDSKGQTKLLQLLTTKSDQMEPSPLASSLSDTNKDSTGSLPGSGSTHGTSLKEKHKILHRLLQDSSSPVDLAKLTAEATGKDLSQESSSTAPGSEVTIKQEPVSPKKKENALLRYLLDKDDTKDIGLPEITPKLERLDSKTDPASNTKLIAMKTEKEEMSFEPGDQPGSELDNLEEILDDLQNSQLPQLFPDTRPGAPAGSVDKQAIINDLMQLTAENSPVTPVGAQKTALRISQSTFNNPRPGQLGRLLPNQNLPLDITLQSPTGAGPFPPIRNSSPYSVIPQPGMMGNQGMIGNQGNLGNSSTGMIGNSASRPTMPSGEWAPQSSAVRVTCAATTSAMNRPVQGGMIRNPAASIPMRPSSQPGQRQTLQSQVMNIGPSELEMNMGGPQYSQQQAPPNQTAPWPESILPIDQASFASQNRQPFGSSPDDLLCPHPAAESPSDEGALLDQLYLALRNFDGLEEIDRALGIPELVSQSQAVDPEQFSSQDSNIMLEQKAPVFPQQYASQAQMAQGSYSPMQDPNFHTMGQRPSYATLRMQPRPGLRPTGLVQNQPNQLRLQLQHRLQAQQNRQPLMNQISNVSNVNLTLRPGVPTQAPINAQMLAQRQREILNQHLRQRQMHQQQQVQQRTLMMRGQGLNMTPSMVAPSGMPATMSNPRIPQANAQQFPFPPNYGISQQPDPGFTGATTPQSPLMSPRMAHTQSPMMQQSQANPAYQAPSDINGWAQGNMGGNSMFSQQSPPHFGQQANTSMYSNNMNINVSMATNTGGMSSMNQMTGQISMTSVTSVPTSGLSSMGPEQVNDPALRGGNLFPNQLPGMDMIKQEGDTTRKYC

Estrogen receptor α LBD (from UniProt P03372)
Kd: 175 nM
